Reference: article PMC9482650, “Quantitative fragmentomics allow affinity mapping of interactomes” (Nature Communications, 2022)
Where a chain is given by its changes, count along the chain named.

T1: LIN7B, Q9HAP6
T1 sequence (Q9HAP6 88-185, limits assumed, looked up): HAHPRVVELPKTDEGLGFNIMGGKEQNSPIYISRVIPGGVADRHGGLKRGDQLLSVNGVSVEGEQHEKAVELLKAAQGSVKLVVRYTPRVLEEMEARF

T2: LIN7A, O14910
T2 sequence (O14910 103-200, limits assumed, looked up): T1 sequence (Q9HAP6 88-185, limits assumed, looked up) with A2S, I20V, V35I, D42E, Q65H, Q77K, G78D, R89K

T3: TX1BP3, O14907
T3 sequence (O14907 10-122, limits assumed, looked up): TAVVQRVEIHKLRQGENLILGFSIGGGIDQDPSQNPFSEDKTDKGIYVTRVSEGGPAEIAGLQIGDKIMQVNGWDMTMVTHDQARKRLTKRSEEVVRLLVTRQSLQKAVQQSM

T4: PTPN13_1, Q12923
T4 sequence (Q12923 1088-1188, limits assumed, looked up): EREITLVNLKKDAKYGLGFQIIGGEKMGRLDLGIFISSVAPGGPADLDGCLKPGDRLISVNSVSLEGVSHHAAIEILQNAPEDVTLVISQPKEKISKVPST

T5: DLG3_3, Q92796
T5 sequence (Q92796 374-475, limits assumed, looked up): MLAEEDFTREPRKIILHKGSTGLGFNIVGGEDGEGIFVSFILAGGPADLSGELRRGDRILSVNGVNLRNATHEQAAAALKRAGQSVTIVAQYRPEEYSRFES

T6: DVL3, Q92997
T6 sequence (Q92997 244-331, limits assumed, looked up): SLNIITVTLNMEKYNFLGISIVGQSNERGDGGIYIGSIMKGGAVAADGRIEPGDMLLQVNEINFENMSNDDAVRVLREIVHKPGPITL

T7: MPDZ_12, O75970
T7 sequence (O75970 1857-1958, limits assumed, looked up): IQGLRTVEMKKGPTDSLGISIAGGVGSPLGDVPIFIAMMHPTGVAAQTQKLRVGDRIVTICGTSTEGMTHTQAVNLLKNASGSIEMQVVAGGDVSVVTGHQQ

T8: SHANK1, Q9Y566
T8 sequence (Q9Y566 658-767, limits assumed, looked up): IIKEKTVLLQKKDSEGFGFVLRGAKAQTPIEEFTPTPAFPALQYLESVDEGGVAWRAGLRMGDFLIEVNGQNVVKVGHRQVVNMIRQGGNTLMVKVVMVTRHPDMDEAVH

T9: DLG3_1, Q92796
T9 sequence (Q92796 125-227, limits assumed, looked up): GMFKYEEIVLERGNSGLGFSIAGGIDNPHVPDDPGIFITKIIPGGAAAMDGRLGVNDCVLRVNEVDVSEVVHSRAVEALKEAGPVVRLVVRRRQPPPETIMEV

T10: PCLO, Q9Y6V0
T10 sequence (Q9Y6V0 4491-4600, limits assumed, looked up): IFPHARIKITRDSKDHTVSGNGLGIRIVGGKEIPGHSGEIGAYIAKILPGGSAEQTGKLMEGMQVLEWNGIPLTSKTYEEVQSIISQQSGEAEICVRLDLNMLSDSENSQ


These binders were tested against T1, LIN7B, Q9HAP6 (assay: holdup assay). Conditions: plain residues with an end cap or a label only (N-terminal biotin on a linker: ado-ado).
Design: key: below the threshold = too weak to quantify, mostly under pKd 3.1 to 4

Binder | pKd
SGDGKTSVWI [GJC1, P36383] | 3.74
EPAKETTTNV [SLC2A3, P11169] | below the threshold

The binders below were run against MAST2, Q6P0Q8 (assay: holdup assay). Conditions: plain residues with an end cap or a label only (N-terminal biotin on a linker: ado-ado).
Sequence of MAST2, Q6P0Q8 (Q6P0Q8 1099-1202): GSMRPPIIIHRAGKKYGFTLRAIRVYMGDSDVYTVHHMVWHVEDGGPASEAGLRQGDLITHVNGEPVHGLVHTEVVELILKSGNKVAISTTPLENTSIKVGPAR
Design: key: below the threshold = too weak to quantify, mostly under pKd 3.1 to 4

Binder | pKd
SGDGKTSVWI [GJC1, P36383] | below the threshold
EPAKETTTNV [SLC2A3, P11169] | 5.06

What follows are binders tested against T2, LIN7A, O14910 (assay: holdup assay). Conditions: plain residues with an end cap or a label only (N-terminal biotin on a linker: ado-ado).
Design: key: below the threshold = too weak to quantify, mostly under pKd 3.1 to 4

Binder | pKd
SGDGKTSVWI [GJC1, P36383] | below the threshold
EPAKETTTNV [SLC2A3, P11169] | below the threshold

What follows are binders tested against T3, TX1BP3, O14907 (assay: holdup assay). Conditions: plain residues with an end cap or a label only (N-terminal biotin on a linker: ado-ado).
Design: key: below the threshold = too weak to quantify, mostly under pKd 3.1 to 4

Binder | pKd
SGDGKTSVWI [GJC1, P36383] | below the threshold
EPAKETTTNV [SLC2A3, P11169] | 4.12

What follows are binders tested against LNX1_1, Q8TBB1 (assay: holdup assay). Conditions: plain residues with an end cap or a label only (N-terminal biotin on a linker: ado-ado).
Sequence of LNX1_1, Q8TBB1 (Q8TBB1 261-371): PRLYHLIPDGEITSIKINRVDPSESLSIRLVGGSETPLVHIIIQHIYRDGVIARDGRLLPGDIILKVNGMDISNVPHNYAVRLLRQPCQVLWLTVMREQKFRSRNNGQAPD
Design: key: below the threshold = too weak to quantify, mostly under pKd 3.1 to 4

Binder | pKd
SGDGKTSVWI [GJC1, P36383] | below the threshold
EPAKETTTNV [SLC2A3, P11169] | below the threshold

The binders below were run against ARHGEF12, Q9NZN5-2 (assay: holdup assay). Conditions: plain residues with an end cap or a label only (N-terminal biotin on a linker: ado-ado).
Sequence of ARHGEF12, Q9NZN5-2 (Q9NZN5 other isoform, or with tags, fused parts or gaps): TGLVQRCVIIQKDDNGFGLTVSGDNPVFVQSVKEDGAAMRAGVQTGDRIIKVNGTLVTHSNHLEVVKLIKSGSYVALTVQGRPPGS
Design: key: below the threshold = too weak to quantify, mostly under pKd 3.1 to 4

Binder | pKd
SGDGKTSVWI [GJC1, P36383] | 3.61
EPAKETTTNV [SLC2A3, P11169] | 3.87

What follows are binders tested against T4, PTPN13_1, Q12923 (assay: holdup assay). Conditions: plain residues with an end cap or a label only (N-terminal biotin on a linker: ado-ado).
Design: key: below the threshold = too weak to quantify, mostly under pKd 3.1 to 4

Binder | pKd
SGDGKTSVWI [GJC1, P36383] | below the threshold
EPAKETTTNV [SLC2A3, P11169] | below the threshold

Each binder was assayed against T5, DLG3_3, Q92796 (assay: holdup assay). Conditions: plain residues with an end cap or a label only (N-terminal biotin on a linker: ado-ado).
Design: key: below the threshold = too weak to quantify, mostly under pKd 3.1 to 4

Binder | pKd
SGDGKTSVWI [GJC1, P36383] | below the threshold
EPAKETTTNV [SLC2A3, P11169] | below the threshold

The binders below were run against DLG1_2, Q12959 (assay: holdup assay). Conditions: plain residues with an end cap or a label only (N-terminal biotin on a linker: ado-ado).
Sequence of DLG1_2, Q12959 (Q12959 314-412): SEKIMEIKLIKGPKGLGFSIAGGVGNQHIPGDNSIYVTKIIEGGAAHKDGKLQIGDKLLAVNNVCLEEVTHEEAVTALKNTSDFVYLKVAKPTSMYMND
Design: key: below the threshold = too weak to quantify, mostly under pKd 3.1 to 4

Binder | pKd
SGDGKTSVWI [GJC1, P36383] | below the threshold
EPAKETTTNV [SLC2A3, P11169] | 4.42

What follows are binders tested against GORASP2, Q9H8Y8 (assay: holdup assay). Conditions: plain residues with an end cap or a label only (N-terminal biotin on a linker: ado-ado).
Design: key: below the threshold = too weak to quantify, mostly under pKd 3.1 to 4

Binder | pKd
SGDGKTSVWI [GJC1, P36383] | 5.03
EPAKETTTNV [SLC2A3, P11169] | 3.49

The binders below were run against NHERF2_2, Q15599 (assay: holdup assay). Conditions: plain residues with an end cap or a label only (N-terminal biotin on a linker: ado-ado).
Sequence of NHERF2_2, Q15599 (Q15599 142-238): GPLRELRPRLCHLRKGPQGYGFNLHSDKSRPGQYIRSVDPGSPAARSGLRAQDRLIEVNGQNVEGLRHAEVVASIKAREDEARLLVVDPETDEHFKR
Design: key: below the threshold = too weak to quantify, mostly under pKd 3.1 to 4

Binder | pKd
SGDGKTSVWI [GJC1, P36383] | 3.98
EPAKETTTNV [SLC2A3, P11169] | 3.69

What follows are binders tested against DLG5_1, Q8TDM6 (assay: holdup assay). Conditions: plain residues with an end cap or a label only (N-terminal biotin on a linker: ado-ado).
Sequence of DLG5_1, Q8TDM6 (Q8TDM6 617-713): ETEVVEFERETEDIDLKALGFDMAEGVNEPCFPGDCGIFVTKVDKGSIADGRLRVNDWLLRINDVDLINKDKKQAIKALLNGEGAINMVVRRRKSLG
Design: key: below the threshold = too weak to quantify, mostly under pKd 3.1 to 4

Binder | pKd
SGDGKTSVWI [GJC1, P36383] | below the threshold
EPAKETTTNV [SLC2A3, P11169] | below the threshold

These binders were tested against T6, DVL3, Q92997 (assay: holdup assay). Conditions: plain residues with an end cap or a label only (N-terminal biotin on a linker: ado-ado).
Design: key: below the threshold = too weak to quantify, mostly under pKd 3.1 to 4

Binder | pKd
SGDGKTSVWI [GJC1, P36383] | 4.23
EPAKETTTNV [SLC2A3, P11169] | below the threshold

The binders below were run against NHERF4_4, Q86UT5 (assay: holdup assay). Conditions: plain residues with an end cap or a label only (N-terminal biotin on a linker: ado-ado).
Sequence of NHERF4_4, Q86UT5 (Q86UT5 464-550): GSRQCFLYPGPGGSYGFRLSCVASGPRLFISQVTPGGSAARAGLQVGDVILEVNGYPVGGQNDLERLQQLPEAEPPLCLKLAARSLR
Design: key: below the threshold = too weak to quantify, mostly under pKd 3.1 to 4

Binder | pKd
SGDGKTSVWI [GJC1, P36383] | 4.24
EPAKETTTNV [SLC2A3, P11169] | below the threshold

What follows are binders tested against GRASP, Q7Z6J2 (assay: holdup assay). Conditions: plain residues with an end cap or a label only (N-terminal biotin on a linker: ado-ado).
Sequence of GRASP, Q7Z6J2 (Q7Z6J2 96-193): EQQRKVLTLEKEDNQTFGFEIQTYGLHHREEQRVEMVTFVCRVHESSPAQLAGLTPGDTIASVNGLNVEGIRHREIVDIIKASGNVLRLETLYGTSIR
Design: key: below the threshold = too weak to quantify, mostly under pKd 3.1 to 4

Binder | pKd
SGDGKTSVWI [GJC1, P36383] | below the threshold
EPAKETTTNV [SLC2A3, P11169] | 3.69

The binders below were run against T7, MPDZ_12, O75970 (assay: holdup assay). Conditions: plain residues with an end cap or a label only (N-terminal biotin on a linker: ado-ado).
Design: key: below the threshold = too weak to quantify, mostly under pKd 3.1 to 4

Binder | pKd
SGDGKTSVWI [GJC1, P36383] | 4.1
EPAKETTTNV [SLC2A3, P11169] | below the threshold

The binders below were run against MAGI2_2, Q86UL8 (assay: holdup assay). Conditions: plain residues with an end cap or a label only (N-terminal biotin on a linker: ado-ado).
Sequence of MAGI2_2, Q86UL8 (Q86UL8 410-522): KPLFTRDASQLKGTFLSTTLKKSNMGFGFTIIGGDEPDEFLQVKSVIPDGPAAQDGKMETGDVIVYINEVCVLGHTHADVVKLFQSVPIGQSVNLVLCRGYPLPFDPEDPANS
Design: key: below the threshold = too weak to quantify, mostly under pKd 3.1 to 4

Binder | pKd
SGDGKTSVWI [GJC1, P36383] | below the threshold
EPAKETTTNV [SLC2A3, P11169] | 3.51

Each binder was assayed against Inadl_5, Q8NI35 (assay: holdup assay). Conditions: plain residues with an end cap or a label only (N-terminal biotin on a linker: ado-ado).
Sequence of Inadl_5, Q8NI35 (Q8NI35 673-780): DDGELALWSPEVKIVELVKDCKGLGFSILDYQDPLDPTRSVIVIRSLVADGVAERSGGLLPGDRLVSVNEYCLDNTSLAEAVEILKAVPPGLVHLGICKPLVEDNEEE
Design: key: below the threshold = too weak to quantify, mostly under pKd 3.1 to 4

Binder | pKd
SGDGKTSVWI [GJC1, P36383] | 3.55
EPAKETTTNV [SLC2A3, P11169] | below the threshold

What follows are binders tested against Inadl_10, Q8NI35 (assay: holdup assay). Conditions: plain residues with an end cap or a label only (N-terminal biotin on a linker: ado-ado).
Sequence of Inadl_10, Q8NI35 (Q8NI35 1673-1763): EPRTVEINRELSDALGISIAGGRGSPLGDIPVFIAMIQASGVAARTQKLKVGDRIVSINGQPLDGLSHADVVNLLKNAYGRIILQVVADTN
Design: key: below the threshold = too weak to quantify, mostly under pKd 3.1 to 4

Binder | pKd
SGDGKTSVWI [GJC1, P36383] | 3.54
EPAKETTTNV [SLC2A3, P11169] | below the threshold

These binders were tested against GRID2IP_1, A4D2P6 (assay: holdup assay). Conditions: plain residues with an end cap or a label only (N-terminal biotin on a linker: ado-ado).
Sequence of GRID2IP_1, A4D2P6 (A4D2P6 1-87): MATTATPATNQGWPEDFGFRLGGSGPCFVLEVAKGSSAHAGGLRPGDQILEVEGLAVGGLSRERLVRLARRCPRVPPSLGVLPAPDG
Design: key: below the threshold = too weak to quantify, mostly under pKd 3.1 to 4

Binder | pKd
SGDGKTSVWI [GJC1, P36383] | below the threshold
EPAKETTTNV [SLC2A3, P11169] | below the threshold

Each binder was assayed against MAGI2_6, Q86UL8 (assay: holdup assay). Conditions: plain residues with an end cap or a label only (N-terminal biotin on a linker: ado-ado).
Sequence of MAGI2_6, Q86UL8 (Q86UL8 1141-1229): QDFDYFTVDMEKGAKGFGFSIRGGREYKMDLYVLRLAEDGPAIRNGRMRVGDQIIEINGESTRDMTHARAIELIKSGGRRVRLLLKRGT
Design: key: below the threshold = too weak to quantify, mostly under pKd 3.1 to 4

Binder | pKd
SGDGKTSVWI [GJC1, P36383] | 3.73
EPAKETTTNV [SLC2A3, P11169] | 3.97

These binders were tested against FRMPD2_1, Q68DX3 (assay: holdup assay). Conditions: plain residues with an end cap or a label only (N-terminal biotin on a linker: ado-ado).
Sequence of FRMPD2_1, Q68DX3 (Q68DX3 770-861): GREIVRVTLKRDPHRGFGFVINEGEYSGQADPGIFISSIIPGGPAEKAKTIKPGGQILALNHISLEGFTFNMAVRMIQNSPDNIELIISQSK
Design: key: below the threshold = too weak to quantify, mostly under pKd 3.1 to 4

Binder | pKd
SGDGKTSVWI [GJC1, P36383] | 3.71
EPAKETTTNV [SLC2A3, P11169] | below the threshold

What follows are binders tested against T8, SHANK1, Q9Y566 (assay: holdup assay). Conditions: plain residues with an end cap or a label only (N-terminal biotin on a linker: ado-ado).
Design: key: below the threshold = too weak to quantify, mostly under pKd 3.1 to 4

Binder | pKd
SGDGKTSVWI [GJC1, P36383] | 3.55
EPAKETTTNV [SLC2A3, P11169] | 3.68

What follows are binders tested against T9, DLG3_1, Q92796 (assay: holdup assay). Conditions: plain residues with an end cap or a label only (N-terminal biotin on a linker: ado-ado).
Design: key: below the threshold = too weak to quantify, mostly under pKd 3.1 to 4

Binder | pKd
SGDGKTSVWI [GJC1, P36383] | below the threshold
EPAKETTTNV [SLC2A3, P11169] | 3.48

What follows are binders tested against GOPC, Q9HD26 (assay: holdup assay). Conditions: plain residues with an end cap or a label only (N-terminal biotin on a linker: ado-ado).
Design: key: below the threshold = too weak to quantify, mostly under pKd 3.1 to 4

Binder | pKd
SGDGKTSVWI [GJC1, P36383] | below the threshold
EPAKETTTNV [SLC2A3, P11169] | 3.73

The binders below were run against Inadl_1, Q8NI35 (assay: holdup assay). Conditions: plain residues with an end cap or a label only (N-terminal biotin on a linker: ado-ado).
Sequence of Inadl_1, Q8NI35 (Q8NI35 113-229): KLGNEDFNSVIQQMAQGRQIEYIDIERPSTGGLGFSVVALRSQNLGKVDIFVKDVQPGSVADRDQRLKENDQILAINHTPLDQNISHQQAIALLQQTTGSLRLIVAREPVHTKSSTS
Design: key: below the threshold = too weak to quantify, mostly under pKd 3.1 to 4

Binder | pKd
SGDGKTSVWI [GJC1, P36383] | 4.03
EPAKETTTNV [SLC2A3, P11169] | below the threshold

What follows are binders tested against Inadl_9, Q8NI35 (assay: holdup assay). Conditions: plain residues with an end cap or a label only (N-terminal biotin on a linker: ado-ado).
Sequence of Inadl_9, Q8NI35 (Q8NI35 1530-1615): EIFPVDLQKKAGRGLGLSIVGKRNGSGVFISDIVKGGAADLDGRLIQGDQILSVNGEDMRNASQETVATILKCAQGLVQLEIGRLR
Design: key: below the threshold = too weak to quantify, mostly under pKd 3.1 to 4

Binder | pKd
SGDGKTSVWI [GJC1, P36383] | 3.85
EPAKETTTNV [SLC2A3, P11169] | below the threshold

The binders below were run against T10, PCLO, Q9Y6V0 (assay: holdup assay). Conditions: plain residues with an end cap or a label only (N-terminal biotin on a linker: ado-ado).
Design: key: below the threshold = too weak to quantify, mostly under pKd 3.1 to 4

Binder | pKd
SGDGKTSVWI [GJC1, P36383] | below the threshold
EPAKETTTNV [SLC2A3, P11169] | below the threshold
